From article PMC10858260

system: ApsR-P (phosphorylated with acetyl-phosphate) (Lacticaseibacillus paracasei BL23); assay: BLI; details: BLI (BLITz, streptavidin sensors, DNA immobilized): 50 mM Tris-HCl pH 7.4, 150 mM NaCl, 0.1% Tween 20; protein preincubated 30 min with 50 mM phosphodonor and …

Sequence	Kd
GGTAAAGAAAGACTAAAGCAGCTTACAAAGCCGTAAGTTACAAACAACCATCCGTTAGGCCATTATCAGGAAAAAGGCAGCCTAACCCGCTATCATAAAG (double strand) [PderA]	4740 nM
TCACGCTTCTCATATTACGAAACTGTTAGCTCATTGTTACGCAATTCGTTGGCGTCATTTTTTCTGAAAACCTATAATGAATGTGTAAATAAAAACGTGG (double strand) [Pdlt]	7470 nM
CAATCATCTCGCAAACTTACATCACCTTACAAAAAGGTCAGAAAGGGTGCGAGGGGCTTGTAGATTTCCTATAATGAATAGGAATATAGACACGGAGGAC (double strand) [PmprF]	26600 nM
GTAAGCTACCTTACCAGCTTGTAAGCAACTACGAATCACTGTAAGTAGGCATGGGGCATCATCCCCGCTAAGCTAATAAATGAAAGGGGACGATCACATG (double strand) [PpsdA]	108000 nM

system: PsdR-P (phosphorylated with ammonium phosphoramidate) (Lacticaseibacillus paracasei BL23); assay: BLI; details: BLI (BLITz, streptavidin sensors, DNA immobilized): 50 mM Tris-HCl pH 7.4, 150 mM NaCl, 0.1% Tween 20; protein preincubated 30 min with 50 mM phosphodonor and …

Sequence	Kd
GGTAAAGAAAGACTAAAGCAGCTTACAAAGCCGTAAGTTACAAACAACCATCCGTTAGGCCATTATCAGGAAAAAGGCAGCCTAACCCGCTATCATAAAG (double strand) [PderA]	172 nM
TCACGCTTCTCATATTACGAAACTGTTAGCTCATTGTTACGCAATTCGTTGGCGTCATTTTTTCTGAAAACCTATAATGAATGTGTAAATAAAAACGTGG (double strand) [Pdlt]	100 nM
CAATCATCTCGCAAACTTACATCACCTTACAAAAAGGTCAGAAAGGGTGCGAGGGGCTTGTAGATTTCCTATAATGAATAGGAATATAGACACGGAGGAC (double strand) [PmprF]	94.8 nM
GTAAGCTACCTTACCAGCTTGTAAGCAACTACGAATCACTGTAAGTAGGCATGGGGCATCATCCCCGCTAAGCTAATAAATGAAAGGGGACGATCACATG (double strand) [PpsdA]	116 nM
